Reference: PMC6444013, “Development of a fluorescence-based method for the rapid determination of Zika virus polymerase activity and the screening of antiviral drugs” (Scientific Reports, 2019)

Tested on: T1, Nc1ncnc2c1ncn2[C@@H]1O[C@H](COP(=O)(O)OP(=O)(O)OP(=O)(O)O)[C@@H](O)[C@H]1O
T1 construct: RdRp domain residues 275-903 of NS5, cut from the genome polyprotein; E. coli BL21(DE3)-pRIL; 75 kDa
Experiment: purified protein
Format: biochemical, Zika virus
Details: poly-U 3 μg/mL, ATP 200–2250 μM, 2.5 mM MnCl2, pH 7.5, 30 °C

ZIKV RdRp (ZIKV NS5 RdRp domain) (Zika virus)
Km: 561 ± 38 µM
